Assay results as given in US20260209376A1 (University of California, published 2026).

molecular target: TfR1 (antigen; form in the assay not stated) (human, UniProt P02786 89-760, limits assumed); experiment: assay not named in the sentence (ELISA and flow cytometry per paragraph 218)
Sequence (P02786 89-760 limits assumed): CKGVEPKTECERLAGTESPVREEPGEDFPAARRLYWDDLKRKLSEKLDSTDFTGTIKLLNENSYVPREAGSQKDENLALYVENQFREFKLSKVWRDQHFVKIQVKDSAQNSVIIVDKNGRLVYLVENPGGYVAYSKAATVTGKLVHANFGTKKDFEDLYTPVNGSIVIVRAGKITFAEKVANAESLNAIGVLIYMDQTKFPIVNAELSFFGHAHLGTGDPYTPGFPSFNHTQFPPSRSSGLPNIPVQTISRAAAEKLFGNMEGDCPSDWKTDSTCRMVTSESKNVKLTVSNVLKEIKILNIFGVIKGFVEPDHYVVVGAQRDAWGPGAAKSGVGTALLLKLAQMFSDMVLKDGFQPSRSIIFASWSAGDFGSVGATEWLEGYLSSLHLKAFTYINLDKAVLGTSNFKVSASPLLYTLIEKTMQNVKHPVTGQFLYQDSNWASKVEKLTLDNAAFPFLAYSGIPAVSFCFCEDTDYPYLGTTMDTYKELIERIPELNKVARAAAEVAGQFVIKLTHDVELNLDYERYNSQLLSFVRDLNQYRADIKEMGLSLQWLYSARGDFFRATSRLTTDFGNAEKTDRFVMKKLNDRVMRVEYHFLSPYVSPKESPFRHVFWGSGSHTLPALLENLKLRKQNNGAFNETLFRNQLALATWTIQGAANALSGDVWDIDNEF

binding result	Binder
no binding	H8L1 (antibody, human IgG1, V domains shown, humanized; also called hu128.1) VH: QVQLVESGGGVVQPGRSLRLSCAASGYSFTGYTMNWVRQAPGNGLEWVARINPHNGGTDYNQKFKDRFTISRDNSKNTLYLQMNSLRAEDTAVYYCARGYYYYSLDYWGQGTTVTVSS VL: EIVLTQSPATLSLSPGERATLSCSASSSIRYIHWYQQKPGQAPRLLIYDTSNLASGTPARFSGSGSGTDFTLTISSLEPEDFAVYYCHQRNSYPWTFGQGTKVEIK
no binding	H8L3 (antibody, human IgG1, V domains shown, humanized; also called hu128.1) VH: QVQLVESGGGVVQPGRSLRLSCAASGYSFTGYTMNWVRQAPGNGLEWVARINPHNGGTDYNQKFKDRFTISRDNSKNTLYLQMNSLRAEDTAVYYCARGYYYYSLDYWGQGTTVTVSS VL: EIVLTQSPDFQSVTPKEKVTITCSASSSIRYIHWYQQRPDQSPKLLIYDTSNLASGVPSRFSGSGSGTDFTLTINSLEAEDAATYYCHQRNSYPWTFGQGTKVEIK
no binding	H8L2 (antibody, human IgG1, V domains shown, humanized; also called hu128.1) VH: QVQLVESGGGVVQPGRSLRLSCAASGYSFTGYTMNWVRQAPGNGLEWVARINPHNGGTDYNQKFKDRFTISRDNSKNTLYLQMNSLRAEDTAVYYCARGYYYYSLDYWGQGTTVTVSS VL: EIVLTQSPATLSVSPGERATLSCSASSSIRYIHWYQQRPGQAPRLLIYDTSNLASGTPARFSGSGSGTDFTLTISSLEPEDFAVYYCHQRNSYPWTFGQGTKVEIK
no binding	H8L4 (antibody, human IgG1, V domains shown, humanized; also called hu128.1) VH: QVQLVESGGGVVQPGRSLRLSCAASGYSFTGYTMNWVRQAPGNGLEWVARINPHNGGTDYNQKFKDRFTISRDNSKNTLYLQMNSLRAEDTAVYYCARGYYYYSLDYWGQGTTVTVSS VL: EIVLTQSPATLSVSPGERATLSCSASSSIRYIHWYQQRPGQAPRLLIYDTSNLASGIPARFSGSGSGTDFTLTISSLEPEDFAVYYCHQRNSYPWTFGPGTKVDIK
